Test results taken from article PMC6708486 (Nature chemistry, 2019).
Positions count from the first letter of the chain named. Numbers in names are those of the source. Where “and” joins values, the source holds several entries; their conditions need not be identical. Equal entries are not always repeated.

B1: LepI (enzyme)
chain: ETVAAIKTLIQQLAQSTDQFGRAEINDALRELQYSLETPFDTVMRMSLDTCQVAVARIGSDLGLFKHLSQCASPQSAEELADHLGCGRELMSRLLRYMASVRMVQQTDDIKYISSNITQTLAVPGLEAGMRHAFENLWPVLMALPDFLAERKYPDIVDAKDTAFQKAFNTDQDCFHWLATQPTRIANFKVLLTDERTPNFLSTFPLEKELGSWSAEPEKALFVDIGGGMGHACIRLREKYPNQPGRVILQDLPPVLQAAQATLPLSGIESMPHNFHTPQPVQGAKFYFLRLILRDFPDHQALEILQNIVPAMDAESRIVIDDGVPPEKGARWAETGTDICIMSALGSKERTQRQWEELAAKAGLQLQALYQYTWPVVNAAMVFSLQ
B2: LepI (C52A) (enzyme)
chain: B1 chain with C51A

Legend:
AUC = biological target: the molecule itself; experiment: AUC
crystal structure = biological target: the molecule itself; experiment: crystal structure

Row | Protein | stoichiometry N (AUC) | binding result (crystal structure)
1 | B1 | 2 and 4 | –
2 | B2 | – | binds
